Reference: the supplement of paper PMC7877785
± gives the uncertainty stated by the source.

Test: self-splicing fitness, log relative to wild type (ln ratio); higher = more splicing; Tetrahymena group I intron in knt gene, E. coli kanamycin selection, DiMSum; sequences stand for … in CUCUCU…GGAGGGAAAAGUUAUCAGGCAUGCACCUGGUAGCUAGUCUUUAAACCAAUAGAUUGCAUCGGUUUAAAAGGCAAGACCGUCAAAUUGCGGGAAAGGGGUCAACAGCCGUUCAGUACCAAGUCUCAGGGGAAACUUUGAGAUGGCCUUGCAAAGGGUAUGGUAAUAAGCUGACGGACAUGGUCCUAACCACGCAGCCAAGUCCUAAGUCAACAGAUCUUCUGUUGAUAUGGAUGCAGUUCACAGACUAAAUGUCGGUCGGGGAAGAUGUAUUCUUCUCAUAAGAUAUAGUCGGACCUCUCCUUAAUGGGAGCUAGCGGAUGAAGUGAUGCAACACUGGAGCCGCUGGGAACUAAUUUGUAUGCGAAAGUAUAUUGAUUAGUUUUGGAGUACUCGUGGUCG
Outline: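 Pooled colonies went to amplicon sequencing on an Illumina HiSeq 2500 after six replicate transformations. The plates were LB agar with 100 μg/mL carbenicillin, 50 μM IPTG and 0.2% rhamnose, with or without 25 μg/mL kanamycin, incubated overnight at 37°C or 30°C. The E. coli BL21(DE3) library had all eight P1ex-region intron nucleotides randomised, the intron placed in the knt kanamycin-resistance gene on pET-22b(+). DiMSum fitness is the error-weighted combination of replicate fold changes, kanamycin against none, normalised to wild type.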

| Sequence | self-splicing fitness (ln) (30 °C) | self-splicing fitness (ln) (37 °C) |
| --- | --- | --- |
| CGUGAGCAAUAUUACGUAUU | -3.5 ± 0.4 | -3.11 ± 0.35 |
| CCUAAGCAAUAUUACGAUUU | -3.8 ± 0.25 | -0.794 ± 0.23 |
| AUUCAGCAAUAUUACGUUGC | -2.72 ± 0.23 | -2.52 ± 0.3 |
| CACAAGCAAUAUUACGUAGG | -1.23 ± 0.056 | -0.693 ± 0.082 |
| GUAGAGCAAUAUUACGCCUC | -0.746 ± 0.27 | -0.67 ± 0.37 |
| UGCAAGCAAUAUUACGAUAC | -2.87 ± 0.23 | -2.24 ± 0.37 |
| ACCUAGCAAUAUUACGAUUU | -0.879 ± 0.064 | -0.0104 ± 0.079 |
| UACAAGCAAUAUUACGUUCA | -0.621 ± 0.052 | -0.478 ± 0.069 |
| AUAGAGCAAUAUUACGAGAA | – | -1.82 ± 0.32 |
| GCGAAGCAAUAUUACGGGGA | -3.69 ± 0.23 | -3.12 ± 0.33 |
| UCUUAGCAAUAUUACGAACA | -0.762 ± 0.13 | -1.04 ± 0.14 |
| AUGCAGCAAUAUUACGACUC | -0.57 ± 0.11 | 0.501 ± 0.11 |
| GUCUAGCAAUAUUACGCGUA | -0.384 ± 0.081 | 0.391 ± 0.09 |
| CGUGAGCAAUAUUACGUGAU | -3.8 ± 0.24 | -3.21 ± 0.23 |
| GAUCAGCAAUAUUACGGAUC | -2.99 ± 0.2 | -2.49 ± 0.36 |
| CCAGAGCAAUAUUACGCAGA | -2.8 ± 0.19 | -2.84 ± 0.44 |
| GAAUAGCAAUAUUACGAUUG | -1.4 ± 0.1 | -0.331 ± 0.13 |
| CGGUAGCAAUAUUACGACUU | -0.479 ± 0.094 | 0.365 ± 0.11 |
| CUCCAGCAAUAUUACGAGAA | -2.14 ± 0.38 | -1.91 ± 0.31 |
| GCUUAGCAAUAUUACGCUCU | -0.864 ± 0.12 | -0.504 ± 0.12 |
| CGGAAGCAAUAUUACGACGC | – | -0.637 ± 0.37 |
| UACAAGCAAUAUUACGUUCU | -1.28 ± 0.12 | -0.681 ± 0.12 |
| AUUUAGCAAUAUUACGCUCA | -1.14 ± 0.18 | 0.0165 ± 0.19 |
| CAACAGCAAUAUUACGAGCG | -0.235 ± 0.051 | 0.702 ± 0.077 |
| CAUUAGCAAUAUUACGACCA | -2.56 ± 0.42 | -1.67 ± 0.37 |

| Sequence | self-splicing fitness (ln) (30 °C) | self-splicing fitness (ln) (37 °C) |
| --- | --- | --- |
| CCGGAGCAAUAUUACGGUUA | -2.44 ± 0.35 | -2.64 ± 0.48 |
| GCGAAGCAAUAUUACGCUCU | -1.7 ± 0.24 | -1.49 ± 0.38 |
| UCCUAGCAAUAUUACGGAGU | -3.81 ± 0.22 | -1.3 ± 0.13 |
| CUGAAGCAAUAUUACGAUAA | -2.51 ± 0.25 | -2.06 ± 0.29 |
| CAAAAGCAAUAUUACGCAGA | -2.57 ± 0.25 | -1.49 ± 0.17 |
| AUAAAGCAAUAUUACGCUGA | -1.27 ± 0.082 | -0.907 ± 0.15 |
| CAAGAGCAAUAUUACGAUCA | -1.72 ± 0.16 | -2.02 ± 0.24 |
| CGACAGCAAUAUUACGGGCA | -1.24 ± 0.14 | 0.117 ± 0.13 |
| CGCUAGCAAUAUUACGGUCC | -1.48 ± 0.12 | -0.153 ± 0.15 |
| AUACAGCAAUAUUACGGUAC | -4.13 ± 0.3 | -2.2 ± 0.18 |
| ACUCAGCAAUAUUACGUAAG | -0.973 ± 0.052 | -0.421 ± 0.078 |
| ACUAAGCAAUAUUACGAGCC | -3.72 ± 0.4 | -1.62 ± 0.33 |
| CUCGAGCAAUAUUACGUUUC | -1.78 ± 0.29 | -1.25 ± 0.25 |
| UUUCAGCAAUAUUACGAUAU | -1.88 ± 0.15 | -0.0425 ± 0.12 |
| AUAGAGCAAUAUUACGAUGU | -0.266 ± 0.067 | 0.423 ± 0.095 |
| AGAUAGCAAUAUUACGAAAC | -3.23 ± 0.37 | – |
| CCCGAGCAAUAUUACGCUCU | – | -2.7 ± 0.29 |
| AUCAAGCAAUAUUACGCGCA | -0.314 ± 0.073 | 0.448 ± 0.098 |
| UAUUAGCAAUAUUACGCGGG | -2.9 ± 0.18 | -1.59 ± 0.23 |
| UACGAGCAAUAUUACGUUAC | -2.96 ± 0.42 | – |
| CCAGAGCAAUAUUACGAACG | -0.512 ± 0.081 | 0.191 ± 0.1 |
| UCGAAGCAAUAUUACGCUUC | -3.77 ± 0.25 | -2.38 ± 0.3 |
| CGACAGCAAUAUUACGAUUG | -0.746 ± 0.07 | -0.877 ± 0.091 |
| AGACAGCAAUAUUACGGUGG | -3 ± 0.12 | -1.89 ± 0.17 |
| UUGAAGCAAUAUUACGGUGA | -0.275 ± 0.08 | -0.469 ± 0.09 |

| Sequence | self-splicing fitness (ln) (30 °C) | self-splicing fitness (ln) (37 °C) |
| --- | --- | --- |
| CGCAAGCAAUAUUACGGCCC | -1.17 ± 0.24 | -1.23 ± 0.26 |
| CGCCAGCAAUAUUACGGCGC | -3 ± 0.17 | -2.23 ± 0.22 |
| UCCUAGCAAUAUUACGGCAU | -3.31 ± 0.17 | -2.2 ± 0.11 |
| CCCGAGCAAUAUUACGUCUG | -3.73 ± 0.29 | -2.32 ± 0.26 |
| CGCUAGCAAUAUUACGGAGA | – | -2.2 ± 0.36 |
| AUAUAGCAAUAUUACGUAUG | -3.36 ± 0.25 | -1.72 ± 0.3 |
| AUACAGCAAUAUUACGCCUU | -0.541 ± 0.06 | -0.208 ± 0.073 |
| GGACAGCAAUAUUACGCUAG | -1.85 ± 0.13 | -0.798 ± 0.17 |
| AAUGAGCAAUAUUACGCGUU | -3.81 ± 0.27 | -2.06 ± 0.23 |
| UCAGAGCAAUAUUACGGUCG | -2.95 ± 0.16 | -1.32 ± 0.14 |
| GUCAAGCAAUAUUACGUAUA | -2.31 ± 0.13 | -0.798 ± 0.14 |
| GAGCAGCAAUAUUACGGGCA | -1.48 ± 0.17 | -0.674 ± 0.13 |
| AAACAGCAAUAUUACGGUUU | -3.64 ± 0.11 | -2.51 ± 0.12 |
| UCGAAGCAAUAUUACGCCCA | -1.84 ± 0.32 | -0.793 ± 0.25 |
| GACAAGCAAUAUUACGGCCC | -0.324 ± 0.16 | 0.203 ± 0.28 |
| GGGAAGCAAUAUUACGGAUU | -0.965 ± 0.07 | -0.737 ± 0.1 |
| CGAAAGCAAUAUUACGCAAA | -2.59 ± 0.26 | -2.35 ± 0.32 |
| GCCAAGCAAUAUUACGAAUG | -3.56 ± 0.2 | -1.84 ± 0.16 |
| UGCGAGCAAUAUUACGGCGC | -2.34 ± 0.46 | – |
| UACGAGCAAUAUUACGCCUA | -1.81 ± 0.15 | -0.823 ± 0.16 |
| UCACAGCAAUAUUACGUGCG | -0.577 ± 0.056 | -0.105 ± 0.069 |
| GAAAAGCAAUAUUACGCGAC | – | 0.397 ± 0.26 |
| UUCAAGCAAUAUUACGGCCA | -1.31 ± 0.13 | -0.977 ± 0.13 |
| CCUCAGCAAUAUUACGGUGA | -3.68 ± 0.28 | -2.28 ± 0.2 |
| AUGAAGCAAUAUUACGAUGG | -3.18 ± 0.18 | -1.92 ± 0.16 |

| Sequence | self-splicing fitness (ln) (30 °C) | self-splicing fitness (ln) (37 °C) |
| --- | --- | --- |
| GACUAGCAAUAUUACGUGUU | -2.22 ± 0.11 | -2.07 ± 0.17 |
| CCCAAGCAAUAUUACGAGGC | -4.03 ± 0.15 | -3.25 ± 0.18 |
| UGGUAGCAAUAUUACGCCAA | -1.77 ± 0.15 | -0.723 ± 0.12 |
| AAGCAGCAAUAUUACGCAGC | -2.55 ± 0.16 | -3.41 ± 0.39 |
| UCGUAGCAAUAUUACGGCUC | – | -1.44 ± 0.24 |
| AUGCAGCAAUAUUACGGCCG | -1.62 ± 0.27 | -1.05 ± 0.3 |
| AUCAAGCAAUAUUACGCCGC | -2.23 ± 0.34 | – |
| UUUCAGCAAUAUUACGUCCA | -0.967 ± 0.14 | 0.0389 ± 0.16 |
| GGCCAGCAAUAUUACGGGAG | -2.14 ± 0.13 | -0.796 ± 0.12 |
| CAAUAGCAAUAUUACGGAGG | -1.16 ± 0.07 | -1.26 ± 0.11 |
| CAUUAGCAAUAUUACGCUAA | -2.7 ± 0.32 | – |
| CCAAAGCAAUAUUACGACGA | -3.11 ± 0.29 | -0.0538 ± 0.26 |
| AUAUAGCAAUAUUACGAUAU | -1.87 ± 0.13 | -1.33 ± 0.13 |
| CGAGAGCAAUAUUACGCUCG | – | -2.39 ± 0.38 |
| UCGCAGCAAUAUUACGCUGG | -1.76 ± 0.16 | -2 ± 0.21 |
| CACUAGCAAUAUUACGUGAC | -2.12 ± 0.14 | -2.36 ± 0.19 |
| GCCUAGCAAUAUUACGGGGC | – | -2.81 ± 0.47 |
| GGGUAGCAAUAUUACGAUAA | -1.67 ± 0.13 | 0.147 ± 0.16 |
| UAGCAGCAAUAUUACGUGGA | -2.16 ± 0.12 | -1.46 ± 0.11 |
| ACUAAGCAAUAUUACGUUUA | -3.27 ± 0.17 | -2.48 ± 0.14 |
| AGCGAGCAAUAUUACGAGGU | -3.69 ± 0.24 | -2.48 ± 0.3 |
| GAACAGCAAUAUUACGGCAU | -0.904 ± 0.085 | -0.254 ± 0.096 |
| GAAGAGCAAUAUUACGCUGA | – | -2.3 ± 0.28 |
| UUCAAGCAAUAUUACGAUCG | -1.26 ± 0.1 | -2.3 ± 0.2 |
